Measurements reported in patent US9156883B2, “Binding molecules for human factor VIII and factor VIII-like proteins” (DYAX CORP., priority 1999, dated 2015).
Positions of bridges follow the written chain, without caps; N, C: chain ends. No end group written: not given here. *: point of attachment. NHNH2 = NN*

The substances below were run against T1, native human factor VIII (nhfVIII) (Homo sapiens, UniProt P00451) (assay: Comparative batch binding and elution of nhfVIII with immobilized polypeptide ligands). Settings: batch procedure.
T1 construct: native human factor VIII (nhfVIII); purchased American Diagnostica, Inc. (Greenwich, Conn.) #408 nat
T1 sequence (P00451 20-1332 limits assumed): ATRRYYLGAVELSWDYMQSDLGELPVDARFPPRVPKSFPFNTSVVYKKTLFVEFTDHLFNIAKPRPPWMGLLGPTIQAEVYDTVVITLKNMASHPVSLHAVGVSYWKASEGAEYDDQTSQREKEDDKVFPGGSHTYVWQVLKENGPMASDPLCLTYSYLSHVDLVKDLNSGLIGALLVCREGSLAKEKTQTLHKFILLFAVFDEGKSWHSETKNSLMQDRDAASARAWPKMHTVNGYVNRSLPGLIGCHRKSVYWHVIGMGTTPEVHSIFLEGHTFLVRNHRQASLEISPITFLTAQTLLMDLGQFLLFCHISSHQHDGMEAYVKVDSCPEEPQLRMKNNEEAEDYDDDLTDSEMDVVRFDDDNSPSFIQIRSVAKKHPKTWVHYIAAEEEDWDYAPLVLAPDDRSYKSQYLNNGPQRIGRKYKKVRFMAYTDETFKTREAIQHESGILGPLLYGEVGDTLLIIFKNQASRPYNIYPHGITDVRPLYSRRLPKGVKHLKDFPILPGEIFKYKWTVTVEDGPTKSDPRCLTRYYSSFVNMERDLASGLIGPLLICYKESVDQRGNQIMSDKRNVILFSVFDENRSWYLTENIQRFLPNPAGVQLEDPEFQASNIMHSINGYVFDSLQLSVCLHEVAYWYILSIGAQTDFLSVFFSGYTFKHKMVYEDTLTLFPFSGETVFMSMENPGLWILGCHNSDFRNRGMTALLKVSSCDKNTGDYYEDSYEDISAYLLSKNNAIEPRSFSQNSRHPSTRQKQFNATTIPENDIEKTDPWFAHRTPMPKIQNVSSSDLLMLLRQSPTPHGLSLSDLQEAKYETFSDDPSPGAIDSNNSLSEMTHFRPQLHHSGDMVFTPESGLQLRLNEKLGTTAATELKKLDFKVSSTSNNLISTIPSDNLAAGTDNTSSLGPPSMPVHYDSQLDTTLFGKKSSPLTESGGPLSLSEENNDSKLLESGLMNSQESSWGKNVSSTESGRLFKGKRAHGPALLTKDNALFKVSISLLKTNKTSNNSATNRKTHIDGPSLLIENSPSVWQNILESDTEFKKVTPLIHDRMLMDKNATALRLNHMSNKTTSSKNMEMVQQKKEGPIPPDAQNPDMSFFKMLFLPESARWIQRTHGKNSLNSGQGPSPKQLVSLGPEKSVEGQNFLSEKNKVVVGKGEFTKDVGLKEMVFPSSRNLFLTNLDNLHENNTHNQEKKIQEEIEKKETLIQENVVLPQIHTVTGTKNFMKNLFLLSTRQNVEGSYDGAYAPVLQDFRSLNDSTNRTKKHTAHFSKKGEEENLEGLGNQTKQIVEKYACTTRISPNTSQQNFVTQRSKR
T1 sequence (P00451 1668-2351 limits assumed): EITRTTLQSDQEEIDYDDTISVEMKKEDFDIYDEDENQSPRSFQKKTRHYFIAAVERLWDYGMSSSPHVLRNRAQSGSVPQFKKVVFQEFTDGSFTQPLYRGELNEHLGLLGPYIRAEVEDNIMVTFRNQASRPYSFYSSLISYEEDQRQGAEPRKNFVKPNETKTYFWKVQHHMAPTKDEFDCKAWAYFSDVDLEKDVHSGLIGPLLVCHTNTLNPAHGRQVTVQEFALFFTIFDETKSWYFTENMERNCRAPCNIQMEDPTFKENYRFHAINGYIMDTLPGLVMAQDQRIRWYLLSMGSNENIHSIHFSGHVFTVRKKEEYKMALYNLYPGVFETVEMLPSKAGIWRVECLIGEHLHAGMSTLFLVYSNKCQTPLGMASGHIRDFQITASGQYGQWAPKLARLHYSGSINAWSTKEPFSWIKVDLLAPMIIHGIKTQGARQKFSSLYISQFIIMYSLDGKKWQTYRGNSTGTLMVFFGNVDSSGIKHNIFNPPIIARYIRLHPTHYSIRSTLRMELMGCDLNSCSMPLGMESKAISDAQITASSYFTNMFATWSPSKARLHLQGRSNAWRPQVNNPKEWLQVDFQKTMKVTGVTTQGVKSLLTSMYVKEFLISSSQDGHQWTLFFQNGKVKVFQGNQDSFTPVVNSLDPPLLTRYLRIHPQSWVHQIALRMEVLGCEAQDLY
Method: For these experiments, nhfVIII was obtained from American Diagnostica, Inc. (Greenwich, Conn.; product #408 nat) in the form of a lyophilized powder containing stabilizing agents. The nhfVIII was reconstituted according to the manufacturer's instructions in a reconstituting buffer (72 mM NH4OAc, pH 6.3, 360 mM NaCl, 0.04% Tween 80 (Buffer 1).
A commercial ELISA kit (IMUBIND fVIII ELISA kit, Product #884, American, Inc., Greenwich, Conn.) developed to detect factor VIII was used according to the manufacturer's specifications in order to detect both the REFACTO® and the nhfVIII targets. The kit employs a sandwich ELISA assay in which the target is captured by an immobilized monoclonal antibody and the captured target is detected with a second monoclonal antibody-horseradish peroxidase (HRP) conjugate. Addition of the peroxidase substrate and its subsequent reaction with the HRP produces a blue color (detected at 630 nm) which changes to yellow (detected at 450 nm) on addition of the 0.5N sulfuric acid stop solution. Color response is calibrated with factor VIII standards provided by the manufacturer.
Following the pH 2 washes, the beads were washed once in PBS containing 0.05% azide and stored at 4° C.
A sample of nhfVIII was diluted to a final concentration of 100 U/ml by addition of 2.32 ml H2O, 180 μl 1M NH4OAc, pH 6.3 (to 72 mM), and 1 μl Tween 80 (to 0.04%). REFACTO® stock solution was diluted to 100 U/ml in a modified Buffer 1, in which the NaCl concentration was reduced from […] to 330 mM.
Immobilized peptides were tested for binding to nhFVIII in comparison with REFACTO®. […] Next, nhfVIII and REFACTO® solutions were mixed with regenerated affinity beads bearing the CS-454, CS-456, and CS-458 ligands in a comparative batch purification procedure.
With “AEGTGDHLCGAWFRPCDADPGPEGGGS-NHNH2 (disulfide 9-16 (inferred)) [CS-454]” the “binding and release of nhfVIII compared with a factor VIII-like polypeptide (in words)” value was “bind and release nhfVIII under similar conditions and with similar yields”.
In the case of “AEGTGDFGCSWLFPCPFDPGPEGGGS-NHNH2 (disulfide 9-15 (inferred)) [CS-456]”, the “binding and release of nhfVIII compared with a factor VIII-like polypeptide (in words)” value is reported as “bind and release nhfVIII under similar conditions and with similar yields”.
In the case of “AEGTGDFCWVFAFDHCHDPGPEGGGS-NHNH2 (disulfide 8-16 (inferred)) [CS-458]”, the “binding and release of nhfVIII compared with a factor VIII-like polypeptide (in words)” value is reported as “bind and release nhfVIII under similar conditions and with similar yields”.
